From patent publication US8143025B2, “Antibodies against vascular endothelial growth factor receptor-1” (ImClone LLC, priority 2004, dated 2012)

How the values were obtained:
[1] = target: human VEGFR-2 alkaline phosphatase (Homo sapiens, UniProt P35968); assay: ELISA-based specificity assay (Example 2A); assay type: binding; conditions: FIG. 6C
Protocol: (§1) To determine the specificity of an anti-VEGFR-1 monoclonal antibody to human VEGFR-I, purified antibodies 18F1 were tested in an ELISA-based assay. One μg/ml of recombinant human VEGFR-I Fc, mouse VEGFR-I Fc, mouse VEGFR-2 Fe, or human VEGFR-2 alkaline phosphatase was coated with PBS in a 96-well microtiter plates at 4° C. over night. After wash, the receptor coated plates were blocked with PBS containing 5% Dry Milk and 0.05% Tween 20. Serial dilutions of primary antibody 18F1 to human VEGFR-I, MF1 to mouse VEGFR-I. ICl 1 to human VEGFR-2, or DClOl to mouse VEGFR-2 were incubated in the receptor-coated plates for 30 minutes. After wash secondary anti-primary HRP conjugate antibodies was incubated in the plates for 30 minutes. Plates were washed and incubated with the substrate TMB (3,3′,5,5′-tetra-methylbenzidine) for color development. The absorbance at 450 nm was read as OD values for quantification of binding activity of antibodies. Data were analyzed using a GraphPad Prism Software.

mouse VEGFR-2 = mouse VEGFR-2 (Mus musculus, UniProt P35918); assay: ELISA-based specificity assay (Example 2A); assay type: binding; conditions: FIG. 6D
Protocol: as §1

mouse VEGFR-I Fc = target: T1, mouse VEGFR-I Fc (Mus musculus, UniProt P35969); assay: ELISA-based specificity assay (Example 2A); assay type: binding; conditions: FIG. 6B
T1 sequence (P35969 23-759 limits assumed): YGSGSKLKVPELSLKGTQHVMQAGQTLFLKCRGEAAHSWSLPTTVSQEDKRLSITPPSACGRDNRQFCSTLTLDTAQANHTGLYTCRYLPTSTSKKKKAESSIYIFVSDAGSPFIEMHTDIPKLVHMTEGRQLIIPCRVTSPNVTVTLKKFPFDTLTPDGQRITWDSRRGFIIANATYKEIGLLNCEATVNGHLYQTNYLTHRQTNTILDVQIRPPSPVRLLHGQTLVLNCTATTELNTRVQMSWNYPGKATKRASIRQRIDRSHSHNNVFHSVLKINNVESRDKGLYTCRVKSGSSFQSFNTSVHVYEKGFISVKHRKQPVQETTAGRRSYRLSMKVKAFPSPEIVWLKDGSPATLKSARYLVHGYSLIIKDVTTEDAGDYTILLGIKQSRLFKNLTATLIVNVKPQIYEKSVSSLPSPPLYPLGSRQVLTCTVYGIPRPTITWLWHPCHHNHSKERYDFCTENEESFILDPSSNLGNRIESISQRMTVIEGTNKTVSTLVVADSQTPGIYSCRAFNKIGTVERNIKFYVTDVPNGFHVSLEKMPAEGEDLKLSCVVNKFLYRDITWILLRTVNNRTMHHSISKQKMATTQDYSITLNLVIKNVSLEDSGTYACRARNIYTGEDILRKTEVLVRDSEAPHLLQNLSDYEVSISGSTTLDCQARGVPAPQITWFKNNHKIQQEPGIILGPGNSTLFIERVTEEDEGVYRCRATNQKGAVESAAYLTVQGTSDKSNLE
Protocol: as §1

[2] = target: T2, recombinant human VEGFR-I Fc (Homo sapiens, UniProt P17948); assay: ELISA-based specificity assay (Example 2A); assay type: binding; conditions: FIG. 6A
T2 construct: soluble recombinant VEGFR-I Fc (rhuVEGFR-1 Fc) proteins were purchased from (R&D Systems Inc); purchased R&D Systems Inc
Protocol: as §1

[3] = tested on: HT-29 human colon carcinoma cells; assay: Soft agarose colony formation; assay type: cell-based; conditions: 66 nM antibody, 10 ng/mL VEGF-A or 50 ng/mL VEGF-B, 14 days, p<0.03
Protocol: One mL DMEM medium containing 10% FBS and 1% agarose (Cambrex Corporation, East Rutherford, N.J.) was plated in each well of six well plates. HT-29 human colon carcinoma cells in serum free medium were treated with 66 nM 18F1 or control IgG for 1 hour and followed by treatment with 10 ng/mL VEGF-A or 50 ng/mL VEGF-B for additional 4 hours. The treated cells were mixed with 1 mL 10% FBS DMEM containing 0.5% agarose and the appropriate antibodies and/or ligands. One mL of this suspension, containing 250 cells, was plated in each well on top of the 1% agarose base layer. After 2 days, additional medium containing antibodies and/or ligands was added to the wells to keep the agarose hydrated. Cells were allowed to grow for 14 days at 37° C. Afterwards, colonies larger than 50 μm in diameter were counted using a dissecting microscope. Statistical analysis was performed using hiStat Statistical Software (V2.03, GraphPad Software, San Diego, Calif.)

T2 sequence (P17948 27-758 limits assumed): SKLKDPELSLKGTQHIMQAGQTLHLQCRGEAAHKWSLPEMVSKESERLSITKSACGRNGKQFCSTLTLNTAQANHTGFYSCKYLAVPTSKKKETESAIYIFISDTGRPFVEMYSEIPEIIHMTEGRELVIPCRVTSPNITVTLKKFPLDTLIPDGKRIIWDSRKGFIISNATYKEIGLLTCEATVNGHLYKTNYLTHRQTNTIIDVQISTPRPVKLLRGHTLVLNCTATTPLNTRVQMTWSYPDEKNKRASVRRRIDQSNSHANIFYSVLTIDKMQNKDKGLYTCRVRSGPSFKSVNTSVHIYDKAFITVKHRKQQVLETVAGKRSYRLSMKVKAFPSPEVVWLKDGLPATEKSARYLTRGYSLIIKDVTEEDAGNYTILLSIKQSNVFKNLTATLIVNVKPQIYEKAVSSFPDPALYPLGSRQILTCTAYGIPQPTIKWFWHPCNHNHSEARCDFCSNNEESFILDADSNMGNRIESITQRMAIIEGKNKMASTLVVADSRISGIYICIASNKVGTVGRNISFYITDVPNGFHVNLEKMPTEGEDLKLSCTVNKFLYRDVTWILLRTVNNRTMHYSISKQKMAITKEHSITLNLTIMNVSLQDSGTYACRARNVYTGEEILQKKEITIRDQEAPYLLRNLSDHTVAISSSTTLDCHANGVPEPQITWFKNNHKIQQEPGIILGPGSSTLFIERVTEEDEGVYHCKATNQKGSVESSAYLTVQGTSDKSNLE
Chain of human VEGFR-2 alkaline phosphatase (P35968 20-764 limits assumed): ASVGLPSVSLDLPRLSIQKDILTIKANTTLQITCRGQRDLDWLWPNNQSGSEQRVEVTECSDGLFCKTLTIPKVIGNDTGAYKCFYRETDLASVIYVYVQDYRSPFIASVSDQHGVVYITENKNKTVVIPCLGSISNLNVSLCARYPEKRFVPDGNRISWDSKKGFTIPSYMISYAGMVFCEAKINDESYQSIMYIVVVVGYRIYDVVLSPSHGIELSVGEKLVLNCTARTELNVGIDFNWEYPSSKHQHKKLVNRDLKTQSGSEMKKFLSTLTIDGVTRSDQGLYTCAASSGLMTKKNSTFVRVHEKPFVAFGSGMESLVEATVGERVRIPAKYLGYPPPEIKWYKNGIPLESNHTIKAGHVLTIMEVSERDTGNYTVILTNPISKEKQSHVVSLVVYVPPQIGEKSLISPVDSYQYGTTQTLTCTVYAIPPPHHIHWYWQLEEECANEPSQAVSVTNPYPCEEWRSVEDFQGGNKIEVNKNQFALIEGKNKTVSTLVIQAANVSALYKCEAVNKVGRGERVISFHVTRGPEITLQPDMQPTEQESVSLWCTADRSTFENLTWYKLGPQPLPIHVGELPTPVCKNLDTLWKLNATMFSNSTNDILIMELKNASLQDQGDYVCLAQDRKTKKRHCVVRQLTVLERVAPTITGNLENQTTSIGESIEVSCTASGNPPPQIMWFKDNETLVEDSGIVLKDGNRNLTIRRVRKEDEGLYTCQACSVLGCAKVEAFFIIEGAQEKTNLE
Chain of mouse VEGFR-2 (P35918 20-762 limits assumed): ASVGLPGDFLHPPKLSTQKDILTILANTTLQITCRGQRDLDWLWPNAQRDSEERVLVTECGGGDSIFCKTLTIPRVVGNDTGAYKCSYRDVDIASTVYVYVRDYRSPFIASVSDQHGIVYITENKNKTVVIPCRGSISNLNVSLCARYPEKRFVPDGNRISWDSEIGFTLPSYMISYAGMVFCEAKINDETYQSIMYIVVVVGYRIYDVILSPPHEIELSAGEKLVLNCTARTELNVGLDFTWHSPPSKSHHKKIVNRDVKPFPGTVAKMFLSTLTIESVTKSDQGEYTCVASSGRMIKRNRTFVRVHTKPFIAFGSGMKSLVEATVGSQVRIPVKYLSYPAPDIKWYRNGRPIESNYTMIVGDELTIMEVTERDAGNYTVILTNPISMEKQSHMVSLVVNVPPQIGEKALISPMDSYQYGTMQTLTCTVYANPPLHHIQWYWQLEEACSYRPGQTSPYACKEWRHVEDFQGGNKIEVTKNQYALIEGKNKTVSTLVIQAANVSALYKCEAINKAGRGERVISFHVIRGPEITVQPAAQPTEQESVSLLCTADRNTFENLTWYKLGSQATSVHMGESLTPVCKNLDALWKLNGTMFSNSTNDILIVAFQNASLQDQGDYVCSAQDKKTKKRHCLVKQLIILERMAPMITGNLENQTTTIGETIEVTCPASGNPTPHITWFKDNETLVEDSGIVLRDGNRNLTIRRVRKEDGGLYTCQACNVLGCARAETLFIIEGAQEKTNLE

## 18F1: human anti-VEGFR-1 monoclonal antibody clone; VL SEQ ID NO: 16, VH SEQ ID NO: 20 [Clone 18F1]
[1]
  cross reactivity with human VEGFR-2: no cross reactivity
Mouse VEGFR-2
  cross reactivity with mouse VEGFR-2: no cross reactivity
Mouse VEGFR-I Fc
  cross reactivity with mouse VEGFR-I: no cross reactivity
[2]
  binding specificity to human VEGFR-I: binding of human VEGFR-I
[3]
  VEGF-A or VEGF-B induced colony formation: completely suppressed
